# In publication PMC11053944, “FRET Assays for the Identification of C. albicans HSP90-Sba1 and Human HSP90α-p23 Binding Inhibitors” (Pharmaceuticals, 2024):
# Where “and” joins values, the source holds several entries; their conditions need not be identical. Equal values may be shown once.
# B1: human p23 (unlabeled) (natural protein, UniProt Q15185 1-160, looked up)
# chain: MQPASAKWYDRRDYVFIEFCVEDSKDVNVNFEKSKLTFSCLGGSDNFKHLNEIDLFHCIDPNDSKHKRTDRSILCCLRKGESGQSWPRLTKERAKLNWLSVDFNNWKDWEDDSDEDMSNFDRFSEMMNNMGGDEDVDLPEVDGADDDSQDSDDEKMPDLE
# notes: human p23, UniProt Q15185; N-terminal His6 followed by an FXa site; also called His6-p23; unlabeled p23; source: E. coli Rosetta2(DE3) pLysS, purified (Ni-NTA, gel filtration)
# B2: human p23-mScarlet-I (natural protein, UniProt Q15185 1-160, looked up)
# chain: MQPASAKWYDRRDYVFIEFCVEDSKDVNVNFEKSKLTFSCLGGSDNFKHLNEIDLFHCIDPNDSKHKRTDRSILCCLRKGESGQSWPRLTKERAKLNWLSVDFNNWKDWEDDSDEDMSNFDRFSEMMNNMGGDEDVDLPEVDGADDDSQDSDDEKMPDLE
# notes: human p23, UniProt Q15185; Cloned by restriction-ligation on the basis of the C. albicans FRET plasmids (His6, FXa site, protein, mScarlet-I at the C-terminus); also called His6-p23-mScarlet-I; source: E. coli Rosetta2(DE3) pLysS, purified (Ni-NTA, gel filtration); not shown: mScarlet-I, C-terminal, kept
# B3: C. albicans HSP90 (without fluorescent protein) (natural protein)
# chain: not shown
# notes: HSP90 of C. albicans, UniProtKB P46598; Printed mass of the monomer 82.5 kDa, dimer 165 kDa; N-terminal His6 followed by an FXa site; also called His6-HSP90; source: E. coli BL21(DE3), purified (Ni-NTA, gel filtration)
# B4: C. albicans Sba1-mScarlet-I (natural protein, UniProt A0A1D8PQ94 1-221, looked up)
# chain: MSSTTTQTPTVLWAQRSSEDDAAKNIIYLTIQISDPIDLKIDLKSDHLIIDSKSNDSVYSSIDYHLQIDFFKEIDPDQSKINTENGSHIFMILRKKDQQEEYWPRLTKEKLKYHYIKTDFDKWVDEDEQDEVKDDPNDFGGPGGPGGAMDFSQMLSGMGGLGGAGGSGGPGGVDLSALASQLGQAGGAGGAAGLDGEEGEEGEAEAKEAQEESNTTATEKE
# notes: Sba1 of C. albicans, UniProtKB A0A1D8PQ94; mScarlet-I fused to the 3' end of Sba1, analogously to HSP90-mNeonGreen (there with a GGGGS linker); N-terminal His6 followed by an FXa site; also called His6-Sba1-mScarlet-I; source: E. coli BL21(DE3), purified (Ni-NTA, gel filtration); not shown: mScarlet-I, C-terminal, kept
# B5: C. albicans Sba1 (unlabeled) (natural protein, UniProt A0A1D8PQ94 1-221, looked up)
# chain: MSSTTTQTPTVLWAQRSSEDDAAKNIIYLTIQISDPIDLKIDLKSDHLIIDSKSNDSVYSSIDYHLQIDFFKEIDPDQSKINTENGSHIFMILRKKDQQEEYWPRLTKEKLKYHYIKTDFDKWVDEDEQDEVKDDPNDFGGPGGPGGAMDFSQMLSGMGGLGGAGGSGGPGGVDLSALASQLGQAGGAGGAAGLDGEEGEEGEAEAKEAQEESNTTATEKE
# notes: Sba1 of C. albicans, UniProtKB A0A1D8PQ94; N-terminal His6 followed by an FXa site; also called His6-Sba1; unlabeled Sba1; source: E. coli BL21(DE3), purified (Ni-NTA, gel filtration)
# Assays:
# human HSP90α-mNeonGreen = target: T1, human HSP90α-mNeonGreen (human, UniProt P07900 1-732); test: FRET or BRET; competition, human: 1 µM HSP90α-mNeonGreen and 1 µM p23-mScarlet-I with unlabeled p23 0-50,000 nM (lowest non-zero 23 nM), reaction buffer with 5 mM ATP; relative IC50 (four parameters), Ki by One Site - Fit Ki; conditions: both partners purified
# T1 construct: human HSP90α, UniProt P07900; DNA from a plasmid of a previous work of the lab; Cloned by restriction-ligation on the basis of the C. albicans FRET plasmids (His6, FXa site, protein, mNeonGreen at the C-terminus); also called His6-HSP90α-mNeonGreen; source: E. coli Rosetta2(DE3) pLysS, purified (Ni-NTA, gel filtration); not shown: mNeonGreen, C-terminal, kept
# [1] = target: T2, human HSP90αE47A-mNeonGreen (human, UniProt P07900 1-732, E47A); test: FRET or BRET; Kd determination, human: 200 nM HSP90αE47A-mNeonGreen, p23-mScarlet-I 0-3000 nM (lowest non-zero 10 nM), reaction buffer with 5 mM ATP, 37 °C, measured after 180 min; mNeonGreen control subtracted; nonlinear regression; conditions: both partners purified
# T2 construct: human HSP90α, UniProt P07900, ATP-hydrolysis-defective mutant E47A; As m3 with E47A; also called His6-HSP90αE47A-mNeonGreen; source: E. coli Rosetta2(DE3) pLysS, purified (Ni-NTA, gel filtration); not shown: mNeonGreen, C-terminal, kept
# [2] = target: the molecule itself; test: cross-linking; glutaraldehyde cross-linking and SDS-PAGE (Coomassie): 10 µM HSP90 with equimolar Sba1 or mScarlet-I, reaction buffer, 15 min 30 °C, 5 mM ATP or 2 mM AMP-PNP; cross-linking 2 min at room temperature
# [3] = target: T3, C. albicans HSP90E36A-mNeonGreen (C. albicans, UniProt P46598 1-707, E36A); test: FRET or BRET; Kd determination, C. albicans: 200 nM HSP90E36A-mNeonGreen, Sba1-mScarlet-I 0-3000 nM (lowest non-zero 10 nM), reaction buffer with 5 mM ATP, 30 °C (text; the legend of Figure 2 says 37 °C), measured after 180 min; mNeonGreen control subtracted; nonlinear regression; conditions: both partners purified
# T3 construct: HSP90 of C. albicans, UniProtKB P46598, ATP-hydrolysis-defective mutant E36A; As m1 with E36A; GGGGS linker before mNeonGreen; also called His6-HSP90E36A-mNeonGreen; source: E. coli BL21(DE3), purified (Ni-NTA, gel filtration); not shown: mNeonGreen, C-terminal, kept
# [4] = target: T4, C. albicans HSP90-mNeonGreen (C. albicans, UniProt P46598 1-707); test: FRET or BRET; competition, C. albicans: 1 µM HSP90-mNeonGreen and 1 µM Sba1-mScarlet-I with unlabeled Sba1 0-25,000 nM (lowest non-zero 12 nM), reaction buffer with 5 mM ATP; relative IC50 (four parameters), Ki by One Site - Fit Ki; conditions: both partners purified
# T4 construct: HSP90 of C. albicans, UniProtKB P46598; pET-11d: N-terminal His6, FXa site, XhoI site, protein, KpnI site; mNeonGreen joined to the C-terminus of HSP90 by a flexible linker GGGGS; No cleavage of the His6 tag is told; also called His6-HSP90-mNeonGreen; source: E. coli BL21(DE3), purified (Ni-NTA, gel filtration); not shown: mNeonGreen, C-terminal, kept
binder,measurement,setting,value
B1,IC50,human HSP90α-mNeonGreen,1420 nM
same,Ki,human HSP90α-mNeonGreen,100 nM
B2,Kd,[1],210 nM and 220 nM
B3,stoichiometry N,[2],2
B4,Kd,[3],100 nM
B5,IC50,[4],1950 nM
same,Ki,[4],100 nM
